Measured values taken from the supplement of paper PMC11246515.
± gives the standard deviation of the averaged measurements.

Experiment: total protein half-life in vivo (active degradation + dilution); higher = more stable protein
[1] = E. coli NCM3722 delta-clpP delta-lon delta-hslV, growth: N-lim chemostat, doubling time 6 h
[2] = E. coli NCM3722 delta-clpP, growth: N-lim chemostat, doubling time 6 h
[3] = E. coli NCM3722 delta-smpB, growth: N-lim chemostat, doubling time 6 h
[4] = wild type E. coli NCM3722, growth: C-lim chemostat, doubling time 3 h
[5] = wild type E. coli NCM3722, growth: C-lim chemostat, doubling time 12 h
[6] = wild type E. coli NCM3722, growth: N-lim chemostat, doubling time 6 h
[7] = wild type E. coli NCM3722, growth: N-lim chemostat, doubling time 12 h
[8] = wild type E. coli NCM3722, growth: C-lim chemostat, doubling time 6 h
[9] = wild type E. coli NCM3722, growth: P-lim chemostat, doubling time 6 h
[10] = wild type E. coli NCM3722, growth: P-lim chemostat, doubling time 12 h
[11] = E. coli NCM3722 delta-lon, growth: N-lim chemostat, doubling time 6 h
[12] = E. coli NCM3722 delta-hslV, growth: N-lim chemostat, doubling time 6 h

Sequence: MRNFDLSPLMRQWIGFDKLANALQNAGESQSFPPYNIEKSDDNHYRITLALAGFRQEDLEIQLEGTRLSVKGTPEQPKEEKKWLHQGLMNQPFSLSFTLAENMEVSGATFVNGLLHIDLIRNEPEPIAAQRIAISERPALNS [P0C058]
- total protein half-life in vivo [1]: 6.3 ± 0.16 h
- total protein half-life in vivo [2]: 2.21 ± 0.097 h
- total protein half-life in vivo [3]: 1.42 h
- total protein half-life in vivo [4]: 1.03 h
- total protein half-life in vivo [5]: 1.59 h
- total protein half-life in vivo [6]: 4.47 h
- total protein half-life in vivo [7]: 3.19 h

Sequence: MSNLLGPRDANGIPVPMTVDESIASMKASLLKKIKRSAYVYRVDCGGCNGCEIEIFATLSPLFDAERFGIKVVPSPRHADILLFTGAVTRAMRSPALRAWQSAPDPKICISYGACGNSGGIFHDLYCVWGGTDKIVPVDVYIPGCPPTPAATLYGFAMALGLLEQKIHARGPGELDEQPAEILHGDMVQPLRVKVDREARRLAGYRYGRQIADDYLTQLGQGEEQVARWLEAENDPRLNEIVSHLNHVVEEARIR
- total protein half-life in vivo [1]: 5.31 h

Sequence: MTEIQRLLTETIESLNTREKRDNKPRFSISFIRKHPGLFIGMYVAFFATLAVMLQSETLSGSVWLLVVLFILLNGFFFFDVYPRYRYEDIDVLDFRVCYNGEWYNTRFVPAALVEAILNSPRVADVHKEQLQKMIVRKGELSFYDIFTLARAESTS [P0AAS0]
- total protein half-life in vivo [4]: 0.508 ± 0.022 h
- total protein half-life in vivo [8]: 0.836 h
- total protein half-life in vivo [6]: 2.01 h
- total protein half-life in vivo [9]: 0.489 h
- total protein half-life in vivo [10]: 0.554 h

Sequence: MPHIDIKCFPRELDEQQKAALAADITDVIIRHLNSKDSSISIALQQIQPESWQAIWDAEIAPQMEALIKKPGYSMNA
- total protein half-life in vivo [9]: 2.92 h

Sequence: MIKQTIVALLLSVGASSVFAAGTVKVFSNGSSEAKTLTGAEHLIDLVGQPRLANSWWPGAVISEELATAAALRQQQALLTRLAEQGADSSADDAAAINALRQQIQALKVTGRQKINLDPDIVRVAERGNPPLQGNYTLWVGPPPSTVTLFGLISRPGKQPFTPGRDVASYLSDQSLLSGADRSYAWVVYPDGRTQKAPVAYWNKRHVEPMPGSIIYVGLADSVWSETPDALNADILQTLTQRIPQ
- total protein half-life in vivo [1]: 7.07 h
- total protein half-life in vivo [2]: 6.22 h
- total protein half-life in vivo [11]: 7.193 ± 0.064 h
- total protein half-life in vivo [3]: 5.1 ± 0.077 h

Sequence: MPHSLFSTDTDLTAENLLRLPAEFGCPVWVYDAQIIRRQIAALKQFDVVRFAQKACSNIHILRLMREQGVKVDSVSLGEIERALAAGYNPQTHPDDIVFTADVIDQATLERVSELQIPVNAGSVDMLDQLGQVSPGHRVWLRVNPGFGHGHSQKTNTGGENSKHGIWYTDLPAALDVIQRHHLQLVGIHMHIGSGVDYAHLEQVCGAMVRQVIEFGQDLQAISAGGGLSVPYQQGEEAVDTEHYYGLWNAAREQIARHLGHPVKLEIEPGRFLVAQSGVLITQVRSVKQMGSRHFVLVDAGFNDLMRPAMYGSYHHISALAADGRSLEHAPTVETVVAGPLCESGDVFTQQEGGNVETRALPEVKAGDYLVLHDTGAYGASMSSNYNSRPLLPEVLFDNGQARLIRRRQTIEELLALELL
- total protein half-life in vivo [1]: 3.43 ± 0.39 h
- total protein half-life in vivo [2]: 2.81 ± 0.36 h
- total protein half-life in vivo [12]: 2.41 ± 0.37 h
- total protein half-life in vivo [3]: 2.06 ± 0.69 h
- total protein half-life in vivo [4]: 2.91 ± 0.14 h
- total protein half-life in vivo [8]: 4.76 ± 0.92 h
- total protein half-life in vivo [5]: 8.09 ± 0.86 h
- total protein half-life in vivo [6]: 2.53 ± 0.12 h
- total protein half-life in vivo [7]: 3.6 ± 0.33 h
- total protein half-life in vivo [9]: 5.29 ± 0.3 h
- total protein half-life in vivo [10]: 9.66 ± 0.16 h

Sequence: MSKATEQNDKLKRAIIISAVLHVILFAALIWSSFDENIEASAGGGGGSSIDAVMVDSGAVVEQYKRMQSQESSAKRSDEQRKMKEQQAAEELREKQAAEQERLKQLEKERLAAQEQKKQAEEAAKQAELKQKQAEEAAAKAAADAKAKAEADAKAAEEAAKKAAADAKKKAEAEAAKAAAEAQKKAEAAAAALKKKAEAAEAAAAEARKKAATEAAEKAKAEAEKKAAAEKAAADKKAAAEKAAADKKAAEKAAAEKAAADKKAAAEKAAADKKAAAAKAAAEKAAAAKAAAEADDIFGELSSGKNAPKTGGGAKGNNASPAGSGNTKNNGASGADINNYAGQIKSAIESKFYDASSYAGKTCTLRIKLAPDGMLLDIKPEGGDPALCQAALAAAKLAKIPKPPSQAVYEVFKNAPLDFKP
- total protein half-life in vivo [2]: 6.28 ± 0.72 h
- total protein half-life in vivo [12]: 6.23 ± 0.21 h
- total protein half-life in vivo [3]: 5.79 ± 0.58 h
- total protein half-life in vivo [4]: 3.23 ± 0.71 h
- total protein half-life in vivo [8]: 6.022 ± 0.019 h
- total protein half-life in vivo [5]: 11.6 ± 1.8 h
- total protein half-life in vivo [6]: 5.85 ± 0.2 h
- total protein half-life in vivo [7]: 12.7 ± 1.3 h
- total protein half-life in vivo [9]: 5.49 ± 0.21 h
- total protein half-life in vivo [10]: 12.3 ± 0.83 h

Sequence: MPNITWCDLPEDVSLWPGLPLSLSGDEVMPLDYHAGRSGWLLYGRGLDKQRLTQYQSKLGAAMVIVAAWCVEDYQVIRLAGSLTARATRLAHEAQLDVAPLGKIPHLRTPGLLVMDMDSTAIQIECIDEIAKLAGTGEMVAEVTERAMRGELDFTASLRSRVATLKGADANILQQVRENLPLMPGLTQLVLKLETLGWKVAIASGGFTFFAEYLRDKLRLTAVVANELEIMDGKFTGNVIGDIVDAQYKAKTLTRLAQEYEIPLAQTVAIGDGANDLPMIKAAGLGIAYHAKPKVNEKAEVTIRHADLMGVFCILSGSLNQK [P0AGB0]
- total protein half-life in vivo [1]: 5.32 ± 0.097 h
- total protein half-life in vivo [2]: 5.09 ± 0.32 h
- total protein half-life in vivo [12]: 5.09 ± 0.31 h
- total protein half-life in vivo [11]: 5.43 ± 0.31 h
- total protein half-life in vivo [3]: 5.08 ± 0.26 h
- total protein half-life in vivo [4]: 3.01 ± 0.1 h
- total protein half-life in vivo [8]: 5.07 ± 0.26 h
- total protein half-life in vivo [5]: 10.3 ± 0.85 h
- total protein half-life in vivo [6]: 4.819 ± 0.032 h
- total protein half-life in vivo [7]: 8.79 ± 0.6 h
- total protein half-life in vivo [9]: 5.83 ± 0.23 h
- total protein half-life in vivo [10]: 11.5 ± 0.32 h

Sequence: MIDVLGPEKRRRRTTQEKIAIVQQSFEPGMTVSLVARQHGVAASQLFLWRKQYQEGSLTAVAAGEQVVPASELAAAMKQIKELQRLLGKKTMENELLKEAVEYGRAKKWIAHAPLLPGDGE [P0CF42]
- total protein half-life in vivo [1]: 2.54 ± 0.27 h
- total protein half-life in vivo [4]: 0.121 h
- total protein half-life in vivo [5]: 1.26 h
- total protein half-life in vivo [6]: 0.716 h
- total protein half-life in vivo [7]: 1.37 h

Sequence: MTSSLPCGQTSLLLQMTERLALSDAHFRRISQLIYQRAGIVLADHKRDMVYNRLVRRLRSLGLTDFGHYLNLLESNQHSGEWQAFINSLTTNLTAFFREAHHFPLLADHARRRSGEYRVWSAAASTGEEPYSIAMTLADTLGTAPGRWKVFASDIDTEVLEKARSGIYRHEELKNLTPQQLQRYFMRGTGPHEGLVRVRQELANYVDFAPLNLLAKQYTVPGPFDAIFCRNVMIYFDQTTQQEILRRFVPLLKPDGLLFAGHSENFSHLERRFTLRGQTVYALSKD
- total protein half-life in vivo [2]: 6.56 h
- total protein half-life in vivo [4]: 1.34 h
- total protein half-life in vivo [5]: 3.42 h
